Results from PMC3489907, “The Human Homolog of Escherichia coli Endonuclease V Is a Nucleolar Protein with Affinity for Branched DNA Structures”.

Target: T1, ENDOV WT (human endonuclease V, exon 10 isoform) (Homo sapiens, UniProt Q8N8Q3 1-282)
T1 sequence: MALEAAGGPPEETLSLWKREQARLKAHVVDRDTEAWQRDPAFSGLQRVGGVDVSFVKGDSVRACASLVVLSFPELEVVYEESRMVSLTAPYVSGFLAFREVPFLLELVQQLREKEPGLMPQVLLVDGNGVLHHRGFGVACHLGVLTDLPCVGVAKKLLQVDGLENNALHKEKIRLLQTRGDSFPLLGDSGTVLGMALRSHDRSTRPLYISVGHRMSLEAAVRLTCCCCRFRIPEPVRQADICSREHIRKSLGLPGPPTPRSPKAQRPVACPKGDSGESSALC
Assay: EMSA; 5 mM Ca2+; EMSA: 10 fmol DNA in 10 µl, 5 ng pQE31 competitor DNA, 5 mM CaCl2, 10 mM HEPES-KOH pH 7.4, 1 mM DTT, 20% glycerol, 4°C 15 min; 10% native PAGE with 5 mM CaCl2 on ice; ENDOV 1.6-6.4 pmol, E. coli endoV 2-8 pmol
Conditions: protein: recombinant, tags: none (His6-MBP removed with TEV)

B1: 5'-flap (10+12+13*) (structured_DNA)
DNA 1: GGATACGTAACAACGCTTATGCATCGCCGCCGCTACATCCCTGAGCTGAC
DNA 2: GTCAGCTCAGGGATGTAGCGGCGG
DNA 3: TGTGTTCGATCTCGATCAGAATGACGATGCATAAGCGTTGTTACGTATCC
Does B1 bind (label: 5'-32P on strand 3, 5'-flap, 1:2 1:3, 5' part of strand 3 unpaired (24 nt))?
Result: binds

B2: 3'-flap (10+11+14*) (structured_DNA)
DNA 1: GGATACGTAACAACGCTTATGCATCGCCGCCGCTACATCCCTGAGCTGAC
DNA 2: ATGCATAAGCGTTGTTACGTATCC
DNA 3: GTCAGCTCAGGGATGTAGCGGCGGAGTCATTCTGATCGAGATCGAACACA
Does B2 bind (label: 5'-32P on strand 3, 3'-flap, 1:2 1:3, 3' part of strand 3 unpaired)?
Result: binds

B3: pseudo-Y (10*+13) (structured_DNA)
DNA 1: GGATACGTAACAACGCTTATGCATCGCCGCCGCTACATCCCTGAGCTGAC
DNA 2: TGTGTTCGATCTCGATCAGAATGACGATGCATAAGCGTTGTTACGTATCC
Does B3 bind (label: 5'-32P on strand 1, splayed duplex 1:2, 3' part of strand 1 and 5' part of strand 2 unpaired (24 nt each))?
Result: binds

B4: fork (10+11+14*+15) (structured_DNA)
DNA 1: GGATACGTAACAACGCTTATGCATCGCCGCCGCTACATCCCTGAGCTGAC
DNA 2: ATGCATAAGCGTTGTTACGTATCC
DNA 3: GTCAGCTCAGGGATGTAGCGGCGGAGTCATTCTGATCGAGATCGAACACA
DNA 4: TGTGTTCGATCTCGATCAGAATGA
Does B4 bind (label: 5'-32P on strand 3, fork 1:2 1:3 3:4)?
Result: binds

B5: 3-way junction (10*+13+14) (structured_DNA)
DNA 1: GGATACGTAACAACGCTTATGCATCGCCGCCGCTACATCCCTGAGCTGAC
DNA 2: TGTGTTCGATCTCGATCAGAATGACGATGCATAAGCGTTGTTACGTATCC
DNA 3: GTCAGCTCAGGGATGTAGCGGCGGAGTCATTCTGATCGAGATCGAACACA
Does B5 bind (label: 5'-32P on strand 1, three-way junction 1:2 1:3 2:3)?
Result: binds

B6: Holliday junction (16+17*+18+19) (structured_DNA)
DNA 1: CCGCTACCAGTGATCACCAATGGATTGCTAGGACATCTTTGCCCACCTGCAGGTTCACCC
DNA 2: TGGGTGAACCTGCAGGTGGGCAAAGATGTCCTAGCAATCCATTGTCTATGACGTCAAGCT
DNA 3: GAGCTTGACGTCATAGACAATGGATTGCTAGGACATCTTTGCCGTCTTGTCAATATCGGC
DNA 4: TGCCGATATTGACAAGACGGCAAAGATGTCCTAGCAATCCATTGGTGATCACTGGTAGCGG
Does B6 bind (label: 5'-32P on strand 2, four-way junction 1:2 2:3 3:4 4:1)?
Result: binds
